B1: Integrator complex subunit 12, residues 155 to 213; numbered along this chain, Q96CB8 (parent)
chain: AMEMGLACVVCRQMMVASGNQLVECQECHNLYHRDCHKPQVTDKEANDPRLVWYCARCT

Variants of: B1
Assay: abundance fitness (aPCA) (normalised: wild type 0, dead -1); higher = more abundant; growth selection in yeast, the domain comes from the species named
Conditions: Homo sapiens

Abundance fitness, by site and new letter:
C11: W -0.958, K -0.761, H -0.839, Y -1, E -0.782, D -0.818, V -1.06, S -0.877, A -0.937, G -0.958, Q -1, M -1.07, I -0.856, R -0.885, L -1.09, F -0.898, N -0.673, T -0.933
S18: T 0.037, I -0.129, L -0.107, A 0.017, H 0.014, V -0.102, W -0.34, R -0.066, D 0.043, F -0.124, M -0.078, E -0.001, Y -0.183, G -0.002, N 0.015, K 0.009, P 0.077, C -0.135, Q 0.001
Q26: T -0.052, I -0.155, H -0.012, S -0.045, C -0.038, R -0.008, A 0.007, D -0.147, G 0.039, Y -0.017, N 0.013, M -0.184, F -0.062, P -0.014, K -0.039, E -0.013, L -0.111, V -0.059, W -0.117
R12: P -0.546, T -0.049, G 0.028, N 0.002, D 0.038, Q 0.047, I -0.74, L -0.101, M -0.081, K 0.052, C -0.069, W -0.405, S 0.055, F -0.226, E 0.007, V -0.463
A17: R -0.03, S 0.006, N 0.001, M -0.049, Y -0.091, T -0.065, E -0.04, W -0.388, I -0.098, F -0.233, C -0.048, D -0.211, Q 0.069, V -0.075, K 0.037, P 0.005, L -0.179
V16: L -0.022, D 0.017, R 0.019, W -0.148, E 0.029, I -0.089, N 0.016, G 0.037, S 0.011, Y -0.144, Q -0.013, A 0.042, C -0.029, K 0.03, F -0.02, P -0.002, T 0.044
V10: C -0.193, E -0.11, I -0.047, M -0.153, P -0.627, Y -0.202, Q -0.157, K -0.242, W -0.381, T -0.46, N -0.191, S -0.401, G -0.206, F -0.241, A -0.059, H -0.161, R -0.347
N20: S -0.036, T -0.007, W -0.281, F -0.165, A -0.03, C -0.098, E -0.007, I -0.089, P -0.011, D 0.005, K 0.02, G -0.05, H -0.015, V -0.049, R -0.045, Y -0.171, M -0.387, L -0.219
G19: D 0.031, V -0.088, R -0.116, A -0.042, N -0.014, P -0.069, H -0.072, F -0.353, I -0.137, K 0.065, M -0.206, Q -0.175, S -0.044, W -0.286, Y -0.167, T -0.026, E 0.058
Q21: E -0.067, P -0.072, G -0.018, K -0.123, T 0.084, V -0.068, M 0.079, W -0.223, N -0.056, Y -0.117, H 0, A -0.026, F -0.078, S 0.019, I -0.091, R 0.004, D -0.008
M14: T 0.016, D 0.101, P -0.007, H -0.02, A 0.06, I 0.028, K 0.085, G 0.115, V 0.06, S 0.073, E 0.042, N 0.031, Y 0.019, R 0.067, Q 0.082
E24: K -0.205, G -0.3, A -0.123, T -0.157, V -0.262, H -0.226, D -0.117, Q -0.088, R -0.094, S -0.236, Y -0.493, N -0.308, M -0.397, L -0.376, F -0.459, W -0.563, C -0.219, I -0.387
E27: D -0.049, F -0.143, A -0.044, C -0.107
V23: N -0.228, E -0.251, T -0.158, P -0.518, H -0.075, A -0.179, Q -0.098, C -0.103, W -0.045, Y -0.046, K -0.164, D -0.296, F -0.021, I 0.001, G -0.528, L 0.006
Q13: Y -0.382, M -0.132, L -0.088, T -0.089, S -0.033, I -0.147, W -0.758, A -0.088, K 0.011, N -0.024, H -0.043, F -0.354, G -0.17, R -0.2, D -0.075, V -0.114, E -0.074, C -0.125
A7: W -0.41, S 0.01, T 0.032, Y -0.144
L22: E -0.353, Q -0.297, G 0.013, N -0.042, T -0.084, I -0.036, Y 0.039, V -0.003, W -0.113, P -0.115, F 0.014, C -0.03, D -0.292, K 0.01, R -0.153, H -0.001, M -0.006
M15: T 0.04, H 0.083, A 0.067, D 0.09, P 0.084, W -0.171, S 0.079, Q 0.115, N 0.063, L -0.013, K 0.094, E -0.081, F -0.053, I 0.028, Y -0.025, R 0.023
C8: P -0.633, H -0.901, L -0.978, G -1.11, D -0.787, V -1.14, W -1.38, M -1.19, R -0.841, N -0.675, E -0.927, K -0.874, F -1, T -0.814, I -1.04, S -0.757, Q -0.71
C25: M -0.792, S -0.662, R -0.714, Q -0.458, N -0.773, V -0.819, E -0.824, H -0.72, T -0.622, G -0.66, L -0.866, K -0.915, D -0.655, P -0.869, I -0.906, W -0.959
V9: E -0.197, W -0.45, P -0.289, C 0.049, T -0.02, S -0.118, F -0.081, K -0.279, R -0.181, Q 0.051, N -0.223, L -0.202, I -0.101, Y -0.147, M -0.204, A -0.046, D -0.248, G -0.216
